Reference: US20070036796A1 (ROCHE PALO ALTO, published 2007)
Residue numbers refer to the chain shown, from its start.

B1: <CCR5>Pz03.1C5 (antibody, V domains shown)
VH: QVQLKQSGPGLVRPSQSLSITCTVSGFPLGIFGVHWVRQSPGKGLEWLGVIWKGGNTDYNAAFMSRLRITKDNSKSQVFFRMNSLQTDDTAIYYCAKVNLADAMDYWGQGTSVIVSS
VL: DIQMTQSPASLSASVGETVTITCRASGNIHGYLAWFQQKQGKSPQLLVYNTKTLAEGVPSRFSGSGSGTQFSLKINSLQPEDFGNYYCQHHYDLPRTFGGGTKLEIKR
notes: also called Antibody C; m<CCR5>Pz03.1C5
B2: <CCR5>Pz02.1C11 (antibody, V domains shown)
VH: B1 VH with I31V, T70S
VL: B1 VL with A25S, T53A, S77N, N85I
notes: also called Antibody B

Assays:
human CCR5 [1] = target: T1, human CCR5 (human, UniProt P51681 1-352); test: cell-based or functional assay
T1 sequence (P51681 whole entry): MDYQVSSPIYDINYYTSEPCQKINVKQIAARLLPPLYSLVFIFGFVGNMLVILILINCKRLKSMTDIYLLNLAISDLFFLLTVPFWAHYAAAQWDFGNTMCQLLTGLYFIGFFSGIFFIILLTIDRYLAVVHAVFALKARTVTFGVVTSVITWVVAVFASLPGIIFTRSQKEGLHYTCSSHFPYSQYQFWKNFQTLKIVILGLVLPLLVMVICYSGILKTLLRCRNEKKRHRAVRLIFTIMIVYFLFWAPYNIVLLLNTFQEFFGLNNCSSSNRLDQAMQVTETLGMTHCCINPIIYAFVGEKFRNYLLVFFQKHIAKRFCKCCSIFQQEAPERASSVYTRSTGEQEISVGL

human CCR5 [2] = target: T1, human CCR5; test: cell-based or functional assay; remark: listed apart in the source
human CCR5 [3] = target: T1, human CCR5; test: epitope mapping with alanine mutants of CCR5
human CCR5 [4] = target: T1, human CCR5; test: cell ELISA on CCR5-expressing cells, hybridoma screening

Binder	IC50, inhibition of HIV growth in human PBMC, JRCSF (p24 ELISA) (human CCR5 [1]) [µg/mL]	IC50, inhibition of HIV growth in human PBMC, Nl-Bal (p24 ELISA) (human CCR5 [1]) [µg/mL]	IC50, PhenoSenseHIV assay (ViroLogic) using JRCSF strain (human CCR5 [2]) [µg/ml]	IC50, cell-cell fusion assay (gp160-expressing HeLa cells with CEM.NKR-CCR5-Luc cells, luciferase) (human CCR5 [2]) [µg/mL]	binding result (human CCR5 [3])	binding result (human CCR5 [4])
B1	0.013	0.029	0.16	0.38	binds	–
B2	0.025	0.025	0.17	0.79	–	binds
